The values below come from US20180214548A1.

This experiment has as its target NC-Fc. In words: ELISA, coated protein 1 ug/mL; antibody concentration not stated.

B1: chimeric anti-PD-1 antibody 21G8F11 (antibody, V domains shown)
VH: EVQLLESGGGLAQPGGSLRLSCAASGFSFNTYLMHWVRQAPGKGLEWVSAISGGGGNTYYADSVKGRFTISRDNSKNTLYLQMNSLRAEDTAVYYCAKENRIPVAPFDYWGQGTLVTVSS
VL: DIQMTQSPSTLSASVGDRVTITCRASQSISTWLAWYQQKPGKAPKLLIYKASSLESGVPSRFSGSGSGTEFTLTISSLQPDDLATYYCQQYNSFSWTFGQGTKVEIK
On to B1, for which the OD450 nm is 0.161.

B2: chimeric anti-PD-1 antibody 76G5B3 (antibody, V domains shown)
VH: QVQLVESGGGVVQPGRSLRLSCAASGFTFSDYGFHWVRQAPGKGLEWVAVIWYDGSNEYYTDSVKGRFTISRDNSKNTLYLQMNSLRAEDTAMYFCVVNPFDYWGQGTLVTVSS
VL: DIQMTQSPSSLSAFVGDRVTITCRASQGINHYLAWYQQKPGKAPNLLILAASTLLSGVPSRFGGRGSGTDFTLIISSLQPEDVATYYCQKYDSAPYTFGQGTKLEIK
B2 gave an OD450 nm of 0.268.
